These results are taken from a protein production outcome set (Wang et al. 2014).

The data set can be described thus: label from the status in PepcDB records.
On to “MSLNKKVFIIDKQTVYQEIDNFSASDAWRCAFIGKNWPQEKKEKIADLLFKREFDEKGNPIGMALTNWRVNIGAGSYENREAKEVDNSWNRTECFLSPDGKYDFTKQAGQQWFMKAARERGMNNFLFFTNSAPYFMTRSASTVSTDQDCINLQNDKFDDFARFLVKSAQHFREQGFHVNYISPNNEPNGQWHANSFQEGSFATKADLYRMVEELDKAISEAQIDTKILIPEVGDMKYLFEIDSIAKTPDDIIHSMFYKDGQYSVLKFKNLFNCVAAHDYWSAYPATLLVDIRNRIHKELSANGHNTKFWASEYCILEKNEEITMPASPERSINLGLYVARIIHNDLTLANASAWQWWTAVSLGEDVPIQLLPLEGSNGLSLQYDGEISTTKMLWTTANYSFFVRPGMKRIAIKPTYKISDLEAATSLMISSYTDGKEVVTVAINYSKENQVISLNCDHAQKGKVYLTTIDKNLRYMGEQPLKKLQLPARSVATIVVEDNEGHHHHHH”, for which the protein production entry is “not failed”.
Under “MSVKVSEYMTKKVVTVSKDNTVKDVIKLLKETGHNSFPVVENGKLIGIVSVHDIVGKDDNEKVENVMTKRKDMVVTTPDANIMDVGRIMFRTGFSKLPVVDEENNLVGIISNMDVIRSQIEKTTPKKLENIIKTYKSLGYNLRVEKEEVDVNKLRPTQNKIHADELVGRMYELKKGLAEPIIAIKTKRGDYYILVDGHHRAVAAYKMGVPKLDAYVIYLDTDKKLGIEKTAEIMNLKSLEDVKIVDSDDENSVKVIKYNKNGVLG” stands “failed”.
As for “MAALSEKEAEAYLDARPRYPIDWFKKIAARTQDHKFAWDVGTGNGQAAIGLVEHYENVVATDINEAQLQRAIKHSRISYHHTPTTISEDEMVDLLGGENSVDLIVAAQAVHFFDLNVFYNVAKRVLRKEGGLIAVWVYNDIIISHEIDPIMKRLVDSTLPFRTPIMNLAFDGYKTLTFPFETIGMGSEGKPITLDIPHKLSLKGFIGFLRSWQPAMKAKEKGVELINEDLITKFEEAWGDETQVKDVFYKAHMIVGKIPEEKFESDQVLSNKGRLLLETEVGRNQKRPQPSDEGDRQSKKQNTSEDDACKDKPSSVFSTHYRF”, the entry is “failed”.
Under “MSNSIFHKIIKSVKGLKLKTDPNLPGAKQKTPLNIKRFYLLIILVIYTATSACIYFDWSAIRKLLLHVGKYKHLNVDEYSDMTLSPQYKRINGLYPLTLAVHFTTSVFCGFLYDHIGPKFTAIIGQLFNIICWILLSIDIKGVDTTLWGFIFLGLGADTAFIPVLTVSNLYPDASTFILTVIGAAASLSYAVPATLNLVLKYFPNLSFSYVCYGYIILILIPCLLTAAFLLPLKPFKALDYYLEKNNETTKHTNAEGRSRSSNNIYTNEEDEFHFKNNASGMVDKDSTENNMNTDEHNYYNNGNISSNDLENNIQTNNRNNNKNNNYNNNNNNNNIIKKNTKISDQSTVKKDKSIDSNKNILHDEEDFHKKSIFLFFKILISYPSVCVITYFILFNISTVFYGMVTDTYFSYDRSIINVINILMPLSSIPCVVFGRFINKYGASVIILTINTLSVLMHLCALIKFRFAGLCSAFLYMCVTSVYTSQIYCFIQNSFPSIVFGKLLGFASLCGGIFSLLCEKLYDLIIIKDSSSIDPTNISLLIVIAFIIMFLPLSILYVRKYERSIENFGEKDKLPMN” stands “failed”; under “MADIRVTHEAQVTVISFPAVFQRLRETEVEQIASTFLAAMQGAQPRKVLIDLEGVEFFGSSFIELLVRGWKRIKEDQQGVFALCSVSPYCVEVLQVTHIDEVWPRYSTKQEALLAMAS”, “not failed”; under “MQNMFDGVQLFVEVVEAGGFAKAGKRLSLTRSTIGKAIARLEMRLGVQLFQRTTRVQSLTEDGQQYYERCLRAIKELRAGEAMLEQGRREVAGRLHVSLPVLFGRQCVAPILRTYAREHPQLELELNFSDHHVDLIADGFDLAVRNGPLGNGTTLRARRLGNQRKILCASPTYLAARGKPHTLADLADHDLLTYCRNDRNMAWTLPDATGALVDIPITSRLRCNDLEVIADTAVDGMGVAWLPYWLLMERMQRGELIGIWGDRPSAVIECHVVWPAAQHVPLRSRLAINLLAAELPKYLEA”, “failed”.
Take “MPPLCPLPTGGKRTNLHQYRHATRAMTDRLSPERRRYLMQQVRSKNTRPEKAVRSLLHSIGYRFRLHRKDLPGTPDIVFPSRRLVLFVHGCFWHGHGCRIGQLPKSRLDYWSPKIEANRARDQRKEAALAAEGWRVAVVWQCELSDLGALEARLRNILDPS”: the protein production result is reported as “failed”.
As for “MDNSGKEAEAMALLAEAERKVKNSQSFFSGLFGGSSKIEEACEIYARAANMFKMAKNWSAAGNAFCQAAQLHLQLQSKHDAATCFVDAGNAFKKADPQEAINCLMRAIEIYTDMGRFTIAAKHHISIAEIYETELVDIEKAIAHYEQSADYYKGEESNSSANKCLLKVAGYAALLEQYQKAIDIYEQVGTNAMDSPLLKYSAKDYFFKAALCHFCIDMLNAKLAVQKYEELFPAFSDSRECKLMKKLLEAHEEQNVDSYTESVKEYDSISRLDQWLTTMLLRIKKTIQGDEEDLR”, the entry is “not failed”.
Under “MLEKELSFADLSISLSELYEAMGYADAVPDEAVEKEVRGVLGRVEAVTSPRFCFFISGGELDESKDSLSVGDTCFSIGKIITRQLRGSESFAFFAATAGTGFERFQHTLQQEGDMVKVYIADAIGSVIAEKTADCMEIALDEYIRDRGWRHTNRFSPGYCGWHVSEQKKLFPLFPSAEPCGIRLTDSGLMLPIKSVSGVIGLGDGVRKLEYTCGLCTYDRCYRRKQRGLEHHHHHH” stands “not failed”.
As for “MASEHHEALNLYAVRVARGEGVKQDFARAASLFRRADRCGFNCEPVYDDMVNDFRDKAFGMELVSSKRAFLKALRPETAEARCTVGEAFIGQGDADSLRTGRELLTSAATLGSGKAMYLLGVLCRDGKGVAANAERAFMWFSLAASCGFAKAESERVNAEGKLDDAGRTRAMQLAARWRRQYLAPVCLEHHHHHH”, the entry is “failed”.
As for “MEYIKPHKGFSTLIILGITLGIDLIFSLLSTFINTYIVLRILEIFIVFFNIYQLYYILKSLTLKYCYDNENFYVLWCFGIRRVTIPFKEIEAYNVSHGEIKGVKLWGYGRNFFALGTFSVNDIGIVNMFVTATKNVIYIKCNSSIYGISPEKCDEVKNFLEKRKLVLKNWTYEKRNKVSLSKDRHFDILIFLISIVILMVTIIPFILYLRGVMPHKMPLSFDSNFKPMIYGTSREFAFKHMMYGAYNMIIFFCIYYSAYFYARYSKKLAYRLMYISFLVAFIFLIFQFKIYVTYIH”, the protein production entry is “failed”.
On to “VAEVPEEHKSKDGNTTVGYVIFFYTYSTWKGRTVYMEDLYVMPEFRGNGIGKALLGAVAKEAKDQLCSRLQFSVLDWNKPSLDFYMAKGAEDLTAKEGWHFLRFHGMALDNLAQEAP”, for which the protein production entry is “failed”.
Under “MGVTLEGQRKESIWVLMRRQRARRALVKKIMIRPRKSVEASRRPCRAIHRRVKTLKELVPNTKTSEGLDGLFRQTADYILALEMKVKVMQTMVQVLTETNCV” stands “failed”.
For the sequence “MQPFVYMAAPARIVFSAGSSADVAEEIRRLGLSRALVLSTPQQKGDAEALASRLGRLAAGVFSEAAMHTPVEVTKTAVEAYRAAGADCVVSLGGGSTTGLGKAIALRTDAAQIVIPTTYAGSEVTPILGQTENGVKTTMRGPEILPEVVIYDAELTLGLPVAISMTSGLNAMAHAAEALYARDRNPIASMMAVEGLRAMIEALPVVRQAPHDIGARETALYGAWLCGTVLGAVGMSLHHKLCHTLGGSLDLPHAETHAVLLPHTIAYVEEAAPNLLAPLAALVGGRAGAGLFDFAARLGAPSSLAALGVGADDLDPMAELATANPYWCPRPIEKTAIRDLLQRAFEGARPA”, the protein production result is given as “not failed”.
As for “PQPKIGILLANLGTPDNYDYWSMRRYLNEFLSDKRVIDYPAWKWQPLLQILILSKRPFSSGANYKLIWNHDKGESPLMTITKDQTAAIAAEIRSLYGNRVMVDFCMRYGNPSTESRVRAMVEAGCEKILFFPLYPHYAGATSATANDEFFRAMMKEKRQPAVRTVPEYYDNPLYIDALAQSVERAYAQLDHRPDVLVASYHGMPKRYLMAGD”, the entry is “failed”.
With “MEIQEMAKRFSPEFKQQAIDYALSNSHEPIATIAQKLGVGYSTLDKWIREANPVGSSKRQLSPEQQRILELEKEVKQLREANDILKKAHVYFLTDHAKKSTR”, the protein production entry is reported as “failed”.
